Test results taken from patent US20120329707A1 (INDIANA UNIVERSITY RESEARCH AND TECHNOLOGY, published 2012).
Numbered stars: 1 amine (or outer) side, 2 acyl side, 3 side chain; on linkers, the order of the positions; unused ones are H or OH. Square brackets hold non-standard residues; d marks the D form. Primed or numbered codes have the meaning given here. Side chains are listed from the residue outwards. Ends that are not written are not given here. * marks the point of attachment. 40K‑TE PEG = 40 kDa PEG covalently bound via thioether, formed by reaction of the free thiol of the peptide (Cys side chain) with an iodoacetic-functionalized PEG; 40K‑TE PEG(3) = 40 kDa PEG bound to the Cys thiol via a thioether, made by reacting the free-thiol peptide with iodoacetic-functionalised PEG; 40K‑TE PEG″ = 40 kDa PEG bound to Cys via thioether made from an iodoacetyl-functionalised PEG; EDTA amide = ethylenediaminetetraacetic acid amide, O=C(O)CN(CCN(CC(=O)O)CC(=O)*)CC(=O)O; 20K‑TE PEG = 20 kDa PEG bound via thioether from iodoacetic-functioned PEG; benzoylpropionyl = benzoylpropionyl acyl group, O=C(CCC(=O)*)c1ccccc1; 12K‑ME PEG = 12 kDa PEG bound via maleimido-thioether; Acetyl(1-adamantyl) = O=C(CC12CC3CC(CC(C3)C1)C2)*; γGlu = O=C(O)[C@H](CCC(=O)[*:2])N[*:1]; Palmitoyl = CCCCCCCCCCCCCCCC(=O)*; Aib = CC(C)(N)C(=O)O

Assays:
Test in all cases: cell-based or functional assay
GLP-1 receptor = molecular target: GLP-1 receptor
glucagon receptor = molecular target: glucagon receptor
GIP receptor = molecular target: T1, GIP receptor
T1 sequence (P48546 whole entry, species assumed, looked up): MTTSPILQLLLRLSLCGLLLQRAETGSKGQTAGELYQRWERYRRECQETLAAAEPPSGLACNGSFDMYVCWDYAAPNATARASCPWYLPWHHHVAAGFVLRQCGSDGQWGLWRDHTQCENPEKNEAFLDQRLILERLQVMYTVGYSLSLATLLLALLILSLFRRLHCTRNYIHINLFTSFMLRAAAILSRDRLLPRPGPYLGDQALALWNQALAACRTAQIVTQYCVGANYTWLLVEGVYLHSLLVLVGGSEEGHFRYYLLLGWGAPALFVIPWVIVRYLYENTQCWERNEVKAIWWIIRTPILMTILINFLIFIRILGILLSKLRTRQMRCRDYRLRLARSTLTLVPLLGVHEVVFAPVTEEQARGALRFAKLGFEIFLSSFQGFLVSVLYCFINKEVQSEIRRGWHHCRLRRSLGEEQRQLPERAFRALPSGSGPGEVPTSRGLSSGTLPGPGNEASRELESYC

## H[Aib]QGTFTSDYSKYLDEKRA[Aib]EFVC(40K‑TE PEG)WLL[Aib]T-NH2 [peptide of SEQ ID NO: 41]
GLP-1 receptor
  EC50 (nM) at GLP-1 receptor: 0.074 nM
Glucagon receptor
  EC50 (nM) at glucagon receptor: 0.309 nM

## H[Aib]QGTFTSDYSKYLDEKRA[Aib]EFVC(40K‑TE PEG″)WLLDE-NH2 [peptide of SEQ ID NO: 16]
GLP-1 receptor
  EC50 (nM) at GLP-1 receptor: 0.487 nM
Glucagon receptor
  EC50 (nM) at glucagon receptor: 0.563 nM
GIP receptor
  EC50 (nM) at GIP receptor: 465 nM

## H[Aib]QGTFTSDYSKYLD[Aib]KRA[Aib]EFVC(40K‑TE PEG(3))WLLDGGPSSGAPPPS-NH2 [peptide of SEQ ID NO: 46]
GLP-1 receptor
  EC50 (nM) at GLP-1 receptor: 0.136 nM
Glucagon receptor
  EC50 (nM) at glucagon receptor: 0.227 nM

## H[dS]QGTFTSDK([γGlu-Palmitoyl])SKYLDEQAAKEFIC(12K‑ME PEG)WLLDT-NH2 [peptide of SEQ ID NO: 43]
GLP-1 receptor
  EC50 (nM) at GLP-1 receptor: 0.011 nM
Glucagon receptor
  EC50 (nM) at glucagon receptor: 0.02 nM

## H[Aib]QGTFTSDYSKYLD[Aib]KRAKEFVQWLLDTC(40K‑TE PEG″)-NH2 [peptide of SEQ ID NO: 40]
GLP-1 receptor
  EC50 (nM) at GLP-1 receptor: 0.653 nM
Glucagon receptor
  EC50 (nM) at glucagon receptor: 1.19 nM

## H[Aib]QGTFTSDYSKYLD[Aib]KRAKEFVQWLLC(40K‑TE PEG)T-OH [peptide of SEQ ID NO: 39]
GLP-1 receptor
  EC50 (nM) at GLP-1 receptor: 1.28 nM
Glucagon receptor
  EC50 (nM) at glucagon receptor: 0.852 nM

## H[Aib]QGTFTSDYSKYLDEKRA[Aib]DFVC(40K‑TE PEG(3))WLLDT-NH2 [peptide of SEQ ID NO: 54]
GLP-1 receptor
  EC50 (nM) at GLP-1 receptor: 0.097 nM
Glucagon receptor
  EC50 (nM) at glucagon receptor: 0.939 nM

## H[Aib]QGTFTSDYSKYLDEKRA[Aib]EFVC(40K‑TE PEG)WLL[Aib]GGPSSGAPPPS-NH2 [peptide of SEQ ID NO: 51]
GLP-1 receptor
  EC50 (nM) at GLP-1 receptor: 0.062 nM
Glucagon receptor
  EC50 (nM) at glucagon receptor: 2.04 nM

## H[Aib]QGTFTSDYSKYLDEKRA[Aib]EFVC(40K‑TE PEG)WLLDT-OH [peptide of SEQ ID NO: 45]
GLP-1 receptor
  EC50 (nM) at GLP-1 receptor: 1.44 nM
Glucagon receptor
  EC50 (nM) at glucagon receptor: 0.651 nM

## H[Aib]QGTFTSDYSKYLDEKRA[Aib]EFV[Aib]WLLC(40K‑TE PEG)T-NH2 [peptide of SEQ ID NO: 42]
GLP-1 receptor
  EC50 (nM) at GLP-1 receptor: 0.117 nM
Glucagon receptor
  EC50 (nM) at glucagon receptor: 1.01 nM

## H[dS]QGTFTSDK([γGlu-Palmitoyl])SKYLDEQAAKEFIC(20K‑TE PEG)WLLDT-NH2 [peptide of SEQ ID NO: 44]
GLP-1 receptor
  EC50 (nM) at GLP-1 receptor: 0.017 nM
Glucagon receptor
  EC50 (nM) at glucagon receptor: 0.023 nM

## H[dA]QGTFTSDK([γGlu-Palmitoyl])SKYLDERAAQDFVQWLLDT-NH2 [peptide of SEQ ID NO: 56]
GLP-1 receptor
  EC50 (nM) at GLP-1 receptor: 0.02 nM
Glucagon receptor
  EC50 (nM) at glucagon receptor: 0.006 nM
GIP receptor
  EC50 (nM) at GIP receptor: 1.64 nM

## H[Aib]QGTFTSDYSKYLD[Aib]KRA[Aib]EFVC(40K‑TE PEG″)WLLDT-NH2 [peptide of SEQ ID NO: 38]
GLP-1 receptor
  EC50 (nM) at GLP-1 receptor: 0.31 nM
Glucagon receptor
  EC50 (nM) at glucagon receptor: 0.141 nM

## H[Aib]QGTFTSDYSKYLDEKRA[Aib]EFVC(40K‑TE PEG)WLLDT-NH2 [peptide of SEQ ID NO: 13]
GLP-1 receptor
  EC50 (nM) at GLP-1 receptor: 0.067 nM
Glucagon receptor
  EC50 (nM) at glucagon receptor: 0.141 nM

B1: peptide of SEQ ID NO: 49 (peptide)
peptide: H[dS]QGTFTSDK(benzoylpropionyl)SKYLDERAAQDFVQWLLDGGPSSGAPPPS-NH2
modifications: N-terminus assumed
SMILES: CC(C)C[C@H](NC(=O)[C@H](CC(C)C)NC(=O)[C@H](Cc1c[nH]c2ccccc12)NC(=O)[C@H](CCC(N)=O)NC(=O)[C@@H](NC(=O)[C@H](Cc1ccccc1)NC(=O)[C@H](CC(=O)O)NC(=O)[C@H](CCC(N)=O)NC(=O)[C@H](C)NC(=O)[C@H](C)NC(=O)[C@H](CCCNC(=N)N)NC(=O)[C@H](CCC(=O)O)NC(=O)[C@H](CC(=O)O)NC(=O)[C@H](CC(C)C)NC(=O)[C@H](Cc1ccc(O)cc1)NC(=O)[C@H](CCCCN)NC(=O)[C@H](CO)NC(=O)[C@H](CCCCNC(=O)CCC(=O)c1ccccc1)NC(=O)[C@H](CC(=O)O)NC(=O)[C@H](CO)NC(=O)[C@@H](NC(=O)[C@H](Cc1ccccc1)NC(=O)[C@@H](NC(=O)CNC(=O)[C@H](CCC(N)=O)NC(=O)[C@@H](CO)NC(=O)[C@@H](N)Cc1c[nH]cn1)[C@@H](C)O)[C@@H](C)O)C(C)C)C(=O)N[C@@H](CC(=O)O)C(=O)NCC(=O)NCC(=O)N1CCC[C@H]1C(=O)N[C@@H](CO)C(=O)N[C@@H](CO)C(=O)NCC(=O)N[C@@H](C)C(=O)N1CCC[C@H]1C(=O)N1CCC[C@H]1C(=O)N1CCC[C@H]1C(=O)N[C@@H](CO)C(N)=O
GLP-1 receptor
  EC50 (nM) at GLP-1 receptor: 0.01 nM
Glucagon receptor
  EC50 (nM) at glucagon receptor: 0.063 nM

## H[Aib]QGTFTSDYSKYLDEKRA[Aib]EFVC(40K‑TE PEG)WLLDGGPSSGAPPPS-NH2 [peptide of SEQ ID NO: 47]
GLP-1 receptor
  EC50 (nM) at GLP-1 receptor: 0.052 nM
Glucagon receptor
  EC50 (nM) at glucagon receptor: 0.591 nM

## H[Aib]QGTFTSDYSKYLDEK[Aib]AKEFVC(40K‑TE PEG(3))WLLDT-NH2 [peptide of SEQ ID NO: 52]
GLP-1 receptor
  EC50 (nM) at GLP-1 receptor: 0.054 nM
Glucagon receptor
  EC50 (nM) at glucagon receptor: 4.5 nM

B2: peptide of SEQ ID NO: 48 (peptide)
peptide: H[dS]QGTFTSDK([γGlu-Acetyl(1-adamantyl)])SKYLDERAAQDFVQWLLDT-NH2
modifications: N-terminus assumed
SMILES: CC(C)C[C@H](NC(=O)[C@H](Cc1ccc(O)cc1)NC(=O)[C@H](CCCCN)NC(=O)[C@H](CO)NC(=O)[C@H](CCCCNC(=O)CC[C@H](NC(=O)CC12CC3CC(CC(C3)C1)C2)C(=O)O)NC(=O)[C@H](CC(=O)O)NC(=O)[C@H](CO)NC(=O)[C@@H](NC(=O)[C@H](Cc1ccccc1)NC(=O)[C@@H](NC(=O)CNC(=O)[C@H](CCC(N)=O)NC(=O)[C@@H](CO)NC(=O)[C@@H](N)Cc1c[nH]cn1)[C@@H](C)O)[C@@H](C)O)C(=O)N[C@@H](CC(=O)O)C(=O)N[C@@H](CCC(=O)O)C(=O)N[C@@H](CCCNC(=N)N)C(=O)N[C@@H](C)C(=O)N[C@@H](C)C(=O)N[C@@H](CCC(N)=O)C(=O)N[C@@H](CC(=O)O)C(=O)N[C@@H](Cc1ccccc1)C(=O)N[C@H](C(=O)N[C@@H](CCC(N)=O)C(=O)N[C@@H](Cc1c[nH]c2ccccc12)C(=O)N[C@@H](CC(C)C)C(=O)N[C@@H](CC(C)C)C(=O)N[C@@H](CC(=O)O)C(=O)N[C@H](C(N)=O)[C@@H](C)O)C(C)C
GLP-1 receptor
  EC50 (nM) at GLP-1 receptor: 0.039 nM
Glucagon receptor
  EC50 (nM) at glucagon receptor: 0.026 nM

## H[dS]QGTFTSDK(EDTA amide)SKYLDERAAQDFVQWLLDGGPSSGAPPPS-NH2 [peptide of SEQ ID NO: 55]
GLP-1 receptor
  EC50 (nM) at GLP-1 receptor: 0.108 nM
Glucagon receptor
  EC50 (nM) at glucagon receptor: 4.34 nM
